Patent publication US6602700B1, “Phenolic acid esterases, coding sequences and methods” (University of Georgia Research Foundation, Inc., priority 1998, dated 2003)

Key:
[1] = Feruloyl esterase activity of C. thermocellum enzymes, HPLC assay, FAXX as substrate; assay type: biochemical; settings: E. coli cell free extracts
Description: (§1) Unless otherwise noted, all C. thermocellum enzyme assays were performed at 60° C. in 50 mM Na-citrate buffer, pH 6.0. One unit of enzyme activity was defined as the amount of enzyme that released 1 μmol of product min-1, and specific activity is given in units per milligram of protein. Feruloyl esterase activity was measured using a modified version of the assay described by Borneman et al. [Borneman etal. (1990) Anal. Biochem. 190:129-133]. The appropriately diluted protein sample (25 l) was added to 400 μl of buffer plus 8 mM of substrate. Samples were incubated at 60° C. for 5 min. and the reaction was stopped by adding 25 μl of 20% formic acid. Release of ferulic acid was measured via HPLC using a mobile phase of 10 mM Na-formate pH 3 and 30% (vol/vol) methanol. For routine assays, FAXX and FAX3 purified from wheat bran were used as substrates [Borneman et al. (1990) supra]. Ethyl-ferulate and ethyl-p-coumarate esters were a gift from D. E. Akin (USDA, Athens, Ga.). The hydrolysis of these (10 mM) were determined similarly to that of FAXX, but the HPLC analyses were performed with 50% methanol. HPLC runs were with a Hewlett Packard 1100 Series instrument equipped with an autosampler and diode array detector. Ferulic acid and p-coumaric acid were used as standards. To determine the amount of feruloyl and p-coumaroyl groups released from plant cell walls, wheat bran and Coastal Bermuda grass were ground in a Wiley mill to pass through a 250 μm screen. Plant samples of ten milligram were incubated for one hour in 400 μl of 50 mM Na-citrate buffer pH, 6.0 plus 25 μl of enzyme. After the addition of 25 μl of 20% formic acid to stop the reaction, the samples were centrifuged at 16,000×g in a microfuge and then assayed for FA and pCA by HPLC.

[2] = Feruloyl esterase activity of C. thermocellum enzymes, HPLC assay, FAX3 as substrate; assay type: biochemical; settings: pH 6.0, 60° C.
Description: as §1, with “To determine the amount of feruloyl and p-coumaroyl groups released from plant cell walls, wheat bran and Coastal Bermuda grass were ground in a Wiley mill to pass through a 250 μm screen. Plant samples of ten milligram were incubated for one hour in 400 μl of 50 mM Na-citrate buffer pH, 6.0 plus 25 μl of enzyme. After the addition of 25 μl of 20% formic acid to stop the reaction, the samples were centrifuged at 16,000×g in a microfuge and then assayed for FA and pCA by HPLC.” left out

[3] = C. thermocellum enzyme stability experiments (heat incubation, residual activity); assay type: physicochemical
Description: Purified enzyme at a concentration of 13 μg/nMl was placed in a water bath at the appropriate temperature and incubated at intervals of one hour. Enzyme aliquots (25 μl) were removed and assays were performed in triplicate using FAX3 as a substrate as described above. FAE/CBD was tested at temperatures of 500, 600, and 70° C. while FAE was tested at 70°, 80° and 90° C.

[4] = Storage stability of purified XynZ-derived FAE at 4° C.; assay type: physicochemical; settings: 4° C. in elution buffer (50 mM Tris pH 7.5, 5% glycerol)
Description: Alternatively, the 100,000×g supernatant after the heat treatment was concentrated to a volume of 2 ml with a Centricon 10 concentrator (Amicon, Millipore, Bedford, Mass.) and then applied to a TSK3000SW column (Tosohaas) which was run with 50 mM Tris pH 7.5 and 5% glycerol as solvent.

[5] = Routine feruloyl esterase assay of purified recombinant XynZ polypeptides (purification tables); assay type: biochemical; settings: purified preparation after heat treatment and TSK 3000SW gel filtration
Description: as §1, with “To determine the amount of feruloyl and p-coumaroyl groups released from plant cell walls, wheat bran and Coastal Bermuda grass were ground in a Wiley mill to pass through a 250 μm screen. Plant samples of ten milligram were incubated for one hour in 400 μl of 50 mM Na-citrate buffer pH, 6.0 plus 25 μl of enzyme. After the addition of 25 μl of 20% formic acid to stop the reaction, the samples were centrifuged at 16,000×g in a microfuge and then assayed for FA and pCA by HPLC.” left out

[6] = Cellulose binding of XynZ constructs; settings: purified from recombinant E. coli

| Molecule | Feruloyl esterase activity (hydrolysis of FAXX) of construct expressed in E. coli [1] | Feruloyl esterase activity (hydrolysis of FAXX) of construct expressed in E. coli ([1]; listed as XynZ UD) | Km [2] [mM] | Vmax [2] | Relative activity after heat incubation ([3]; 80° C., after three hours of incubation) | Relative activity after heat incubation ([3]; 90° C., after 1 hour of incubation) | Thermal stability ([3]; temperatures up to 70° C. for 6 hours) | Storage stability [4] | Specific Activity [5] [U/mg] | Removal of feruloyl esterase activity by Avicel and acid swollen cellulose adsorption (cellulose binding) [6] |
| --- | --- | --- | --- | --- | --- | --- | --- | --- | --- | --- |
| FAE: C. thermocellum XynZ amino acids 20-286 expressed in E. coli; feruloyl esterase domain without linker or CBD (protein, listed as Clostridium thermocellum) LVTISSTSAASLPTMPPSGYDQVRNGVPRGQVVNISYFSTATNSTRPARVYLPPGYSKDKKYSVLYLLHGIGGSENDWFEGGGRANVIADNLIAEGKIKPLIIVTPNTNAAGPGIADGYENFTKDLLNSLIPYIESNYSVYTDREHRAIAGLSMGGGQSFNIGLTNLDKFAYIGPISAAPNTYPNERLFPDGGKAAREKLKLLFIACGTNDSLIGFGQRVHEYCVANNINHVYWLIQGGGHDFNVWKPGLWNFLQMADEAGLTRDGN | exhibited feruloyl esterase activity | high levels of feruloyl esterase activity | 10.5 | 28.2 μmol ferulic acid released min-1 mg-1 | around 50% | most of the relative activity was destroyed | stable | stable for at least a month | 26.6 | not |
| FAE287: XynZ amino acids 20-307; lacks the CBD but contains the proline rich linker (protein, listed as Clostridium thermocellum) LVTISSTSAASLPTMPPSGYDQVRNGVPRGQVVNISYFSTATNSTRPARVYLPPGYSKDKKYSVLYLLHGIGGSENDWFEGGGRANVIADNLIAEGKIKPLIIVTPNTNAAGPGIADGYENFTKDLLNSLIPYIESNYSVYTDREHRAIAGLSMGGGQSFNIGLTNLDKFAYIGPISAAPNTYPNERLFPDGGKAAREKLKLLFIACGTNDSLIGFGQRVHEYCVANNINHVYWLIQGGGHDFNVWKPGLWNFLQMADEAGLTRDGNTPVPTPSPKPANTRIEAEDYD | exhibited feruloyl esterase activity |  |  |  |  |  |  |  |  |  |
| FAE227: XynZ amino acids 20-247; expressed but inactive truncation (protein, listed as Clostridium thermocellum) LVTISSTSAASLPTMPPSGYDQVRNGVPRGQVVNISYFSTATNSTRPARVYLPPGYSKDKKYSVLYLLHGIGGSENDWFEGGGRANVIADNLIAEGKIKPLIIVTPNTNAAGPGIADGYENFTKDLLNSLIPYIESNYSVYTDREHRAIAGLSMGGGQSFNIGLTNLDKFAYIGPISAAPNTYPNERLFPDGGKAAREKLKLLFIACGTNDSLIGFGQRVHEYCVANN | inactive |  |  |  |  |  |  |  |  |  |
